Tests used:
Assay in all cases: multimer staining
[1] = biological target: T1, Ro60 peptide on HLA-DRA*01:01 / HLA-DRB1*03:01 (human)
T1 peptide: KRFLLAVDVSASMNQ

[2] = biological target: T2, SmD1 (Smith protein) peptide on HLA-DRA*01:01 / HLA-DRB1*03:01 (human)
T2 peptide: TLLVDVEPKVKSKKR

[3] = biological target: T3, MPO (myeloperoxidase) peptide on HLA-DRA*01:01 / HLA-DRB1*04:05 (human)
T3 peptide: MVQIITYRDYLPLVL

Measured: binding result

B1: Promiscuous self-TCR (TCR, V domains shown)
Valpha: RKEVEQDPGPFNVPEGATVAFNCTYSNSASQSFFWYRQDCRKEPKLLMSVYSSGNEDGRFTAQLNRASQYISLLIRDSKLSDSATYLCVVPPGGGFKTIFGAGTRLFVKA
Vbeta: EAQVTQNPRYLITVTGKKLTVTCSQNMNHEYMSWYRQDPGLGLRQIYYSMNVEVTDKGDVPEGYKVSRKEKRNFPLILESPSPNQTSLYFCASRTRTASYGYTFGSGTRLTVV
recognises: all assays above
